Measurements: patent US20220089784A1 (University of California, published 2022)
Read-outs that look alike come from different tables or passages of the source.

Legend:
[1] = target: BoNT/A light chain (recombinant) (Clostridium botulinum, UniProt P0DPI0 1-448); assay: KinExA, IgG
BoNT/B1 = target: T1, BoNT/B1 (Clostridium botulinum, UniProt P10844 2-1291); assay: yeast scFv FACS
T1 sequence: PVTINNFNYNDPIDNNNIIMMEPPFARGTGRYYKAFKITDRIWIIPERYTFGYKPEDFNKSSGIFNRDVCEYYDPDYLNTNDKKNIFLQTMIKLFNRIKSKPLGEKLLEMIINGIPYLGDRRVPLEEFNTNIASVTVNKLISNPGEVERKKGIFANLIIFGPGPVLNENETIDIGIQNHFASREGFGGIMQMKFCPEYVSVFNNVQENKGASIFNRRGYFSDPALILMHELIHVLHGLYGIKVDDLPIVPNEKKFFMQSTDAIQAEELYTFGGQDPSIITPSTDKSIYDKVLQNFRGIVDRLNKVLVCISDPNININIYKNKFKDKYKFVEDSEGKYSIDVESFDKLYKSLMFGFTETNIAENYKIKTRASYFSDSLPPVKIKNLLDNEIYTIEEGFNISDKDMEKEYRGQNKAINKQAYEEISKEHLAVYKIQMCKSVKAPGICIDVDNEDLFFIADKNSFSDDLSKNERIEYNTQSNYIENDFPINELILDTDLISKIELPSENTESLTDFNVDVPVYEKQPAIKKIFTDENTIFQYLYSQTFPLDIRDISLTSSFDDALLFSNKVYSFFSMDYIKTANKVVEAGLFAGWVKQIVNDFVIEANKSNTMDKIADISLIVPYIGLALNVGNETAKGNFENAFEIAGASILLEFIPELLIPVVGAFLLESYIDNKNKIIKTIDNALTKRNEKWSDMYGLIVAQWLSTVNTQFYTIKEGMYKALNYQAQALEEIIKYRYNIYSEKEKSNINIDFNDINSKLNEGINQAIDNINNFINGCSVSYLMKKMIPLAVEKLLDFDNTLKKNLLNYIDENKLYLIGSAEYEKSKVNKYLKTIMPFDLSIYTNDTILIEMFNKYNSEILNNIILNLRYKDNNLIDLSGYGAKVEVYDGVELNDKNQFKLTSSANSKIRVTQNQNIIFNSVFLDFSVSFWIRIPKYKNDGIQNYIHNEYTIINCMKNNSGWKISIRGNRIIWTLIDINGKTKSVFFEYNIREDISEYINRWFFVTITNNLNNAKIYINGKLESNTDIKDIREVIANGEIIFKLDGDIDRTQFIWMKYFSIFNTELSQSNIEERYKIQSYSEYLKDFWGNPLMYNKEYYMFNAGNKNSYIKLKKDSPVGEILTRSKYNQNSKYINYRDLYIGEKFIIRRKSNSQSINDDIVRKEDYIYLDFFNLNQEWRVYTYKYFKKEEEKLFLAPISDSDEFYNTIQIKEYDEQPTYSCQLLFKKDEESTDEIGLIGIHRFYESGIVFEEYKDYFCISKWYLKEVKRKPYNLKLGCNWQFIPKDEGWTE

[2] = target: T2, BoNT/B HC (C-terminal domain of the BoNT/B heavy chain, recombinant) (Clostridium botulinum, UniProt P10844 853-1291); assay: yeast scFv FACS
T2 sequence: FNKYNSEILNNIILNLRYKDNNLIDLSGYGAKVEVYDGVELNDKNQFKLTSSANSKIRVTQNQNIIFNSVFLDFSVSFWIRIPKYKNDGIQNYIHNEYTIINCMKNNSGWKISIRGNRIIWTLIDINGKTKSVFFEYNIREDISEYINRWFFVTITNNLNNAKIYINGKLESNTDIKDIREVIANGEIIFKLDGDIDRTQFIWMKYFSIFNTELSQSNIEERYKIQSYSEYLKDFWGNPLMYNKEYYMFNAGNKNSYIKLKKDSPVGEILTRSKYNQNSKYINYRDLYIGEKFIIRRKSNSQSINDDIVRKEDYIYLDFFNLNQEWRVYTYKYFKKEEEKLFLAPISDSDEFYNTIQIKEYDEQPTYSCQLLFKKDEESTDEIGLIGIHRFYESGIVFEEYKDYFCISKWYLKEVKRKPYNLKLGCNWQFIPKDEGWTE

[3] = target: T3, BoNT/F1 (proteolytic BoNT/F) (Clostridium botulinum, UniProt A7GBG3 1-1278); assay: yeast scFv FACS
T3 sequence: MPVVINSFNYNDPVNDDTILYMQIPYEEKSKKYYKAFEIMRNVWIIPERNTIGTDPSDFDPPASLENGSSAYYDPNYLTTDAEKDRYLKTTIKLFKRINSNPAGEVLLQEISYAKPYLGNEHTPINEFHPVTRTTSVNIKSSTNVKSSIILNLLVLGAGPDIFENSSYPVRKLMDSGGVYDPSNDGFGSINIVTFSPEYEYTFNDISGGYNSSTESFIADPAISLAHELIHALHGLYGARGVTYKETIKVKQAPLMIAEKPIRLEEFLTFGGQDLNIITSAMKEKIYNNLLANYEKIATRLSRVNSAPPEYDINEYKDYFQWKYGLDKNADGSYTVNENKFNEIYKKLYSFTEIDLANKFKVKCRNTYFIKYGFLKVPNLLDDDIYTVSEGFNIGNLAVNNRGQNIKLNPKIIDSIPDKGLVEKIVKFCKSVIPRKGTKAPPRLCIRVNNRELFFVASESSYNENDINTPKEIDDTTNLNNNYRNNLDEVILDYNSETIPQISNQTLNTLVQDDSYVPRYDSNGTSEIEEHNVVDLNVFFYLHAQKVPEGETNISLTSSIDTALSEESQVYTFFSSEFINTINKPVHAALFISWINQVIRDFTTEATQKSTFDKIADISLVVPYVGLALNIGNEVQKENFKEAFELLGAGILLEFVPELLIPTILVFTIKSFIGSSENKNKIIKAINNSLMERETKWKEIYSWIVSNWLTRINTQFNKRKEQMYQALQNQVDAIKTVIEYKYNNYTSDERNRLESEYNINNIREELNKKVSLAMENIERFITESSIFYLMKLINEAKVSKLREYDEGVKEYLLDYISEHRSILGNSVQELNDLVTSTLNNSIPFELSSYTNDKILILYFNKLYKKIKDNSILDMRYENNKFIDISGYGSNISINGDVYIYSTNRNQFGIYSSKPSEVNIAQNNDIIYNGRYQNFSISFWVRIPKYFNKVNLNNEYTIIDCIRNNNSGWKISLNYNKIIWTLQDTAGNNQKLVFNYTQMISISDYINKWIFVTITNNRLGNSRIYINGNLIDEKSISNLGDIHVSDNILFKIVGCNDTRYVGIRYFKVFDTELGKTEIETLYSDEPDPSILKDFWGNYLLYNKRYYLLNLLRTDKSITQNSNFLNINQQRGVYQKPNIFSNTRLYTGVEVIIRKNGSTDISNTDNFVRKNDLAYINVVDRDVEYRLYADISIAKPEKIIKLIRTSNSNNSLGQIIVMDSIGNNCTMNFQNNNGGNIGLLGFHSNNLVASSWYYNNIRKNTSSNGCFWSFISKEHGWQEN

[4] = target: T3, BoNT/F1 (proteolytic BoNT/F); assay: yeast scFv FACS; remark: listed apart in the source

Sequence of BoNT/A light chain (recombinant) (P0DPI0 1-448 limits assumed): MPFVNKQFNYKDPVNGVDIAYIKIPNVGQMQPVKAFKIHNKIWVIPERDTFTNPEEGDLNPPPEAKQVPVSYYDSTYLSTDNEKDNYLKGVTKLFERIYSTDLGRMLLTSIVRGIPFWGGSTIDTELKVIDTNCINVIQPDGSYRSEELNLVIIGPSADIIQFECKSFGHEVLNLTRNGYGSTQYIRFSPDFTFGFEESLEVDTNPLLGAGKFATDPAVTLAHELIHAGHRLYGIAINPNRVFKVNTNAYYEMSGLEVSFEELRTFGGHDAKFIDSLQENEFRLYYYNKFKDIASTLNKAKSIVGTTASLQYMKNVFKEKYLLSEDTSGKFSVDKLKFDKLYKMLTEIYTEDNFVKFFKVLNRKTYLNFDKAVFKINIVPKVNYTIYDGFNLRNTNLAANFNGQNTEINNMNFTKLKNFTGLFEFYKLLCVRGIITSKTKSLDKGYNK

B1: 6A2M IgG (antibody, V domains shown)
VH: EVQLQQSGAELVRPGTSVKLSCKSSGYTFTSDWMHWVIQRPGQGLEWIGVIDPSDSYTNYNQKFKGKATLTVDTSSSTAYMHLSSLTSEDSAVYYCARREGHYYGKAMDYWGQGTSVTVSS
VL: DIVMSQSPASLAVSLGQRATISCRASESVDYDGDSYMNWYQQKPGQPPKLLIYAASNLESGIPARFSGSGSGTDFTLNIHPVEEEDAATYYCLQSNEAPWTFGGGTKLEIK
notes: IgG converted from scFv
Kd [1]: 45 nM

B2: 6A4M IgG (antibody, V domains shown)
VH: EVQLQQSGAELVRPGTSVKLSCKASGYTFTSYWMHWVKQRPGQGLEWIGVIDPSDSYTNYNQKFKGKATLTVDTSSSTAYMQLSSLASEDSAVYYCARYPGNRAMDYWGQGTSVTVSS
VL: DIVLTQSPASLAVSLGQRATISCRASESVDYDGDSYMNWYQQKPGQPPKLLIYAASNLESGIPARFSGSGSGTDFTLNIHPVEEEDAATYYCLQSNEAPWTFGGGTKLEIK
notes: IgG converted from scFv
Kd [1]: 21 nM

B3: 6A3M IgG (antibody, V domains shown)
VH: EVQLQQSGAELVKPGASVKLSCKASGYTFTSYWMHWIKQRPGQGLEWIGVIDPSDSYTNYNQKFKGKATLTVDTSSSTAYMQLSSLTSEDSAVYYCATGGNGFFDYWGQGTTLTVSS
VL: DIVLTQSPASLAVSLGQRATISCRASESVDYDGDSYMNWYQQKPGQPPKLLIYAASNLESGIPARFSGSGSGTDFTLNIHPVEEEDAATYYCLQSNEAPWTFGGGTKLELK
notes: IgG converted from scFv
Kd [1]: 10 nM

B4: 26D9 scFv (scFv)
scFv: DVQLQESGAELVKPGASVKLSCKASGFTFTDYWMHWVKQRPGQGLEWIGMIHPYNGDNNYHEKFKSKATLTVDKSSSTAYMQLSSLTTEDSAVYYCVRNDYDPYYYALDYWGQGTSLTVSAVDLKSGGSTSGSGKPGSGEGSSGSARQIVLTQSPAIMSASPGEKVTMSCRASSSVSYVYWYQQKPGSSPKPWIYRTSNLASGVPVRFSGSGSGTSYSLTISRVEAEDAATYYCQQWSSYPPTFGGGTKLEIK
notes: mouse
Kd (BoNT/B1): 0.582 nM
Kd [2]: 0.089 nM

B5: 29B8 scFv (scFv, V domains shown)
VH: EVQLQQSGAELVKPGASVKLSCTASGFNIKDYYMHWVKQRTEQGLEWIGRIDPEDGETKYAPKFQGKATITADTSSNTAYLQLSSLTSEDTAVYYCVSLLRSRTGYFDYWGQGTTLTVSS
VL: ENVLTQSPAIMSASPGEKVTMTCSASSSVSYMHWYQQKSGTSPKRWIYDTSNLAPGVPARFSGSGSGTSYSLTISSMEAEDAASYFCHQWSSYPYTFGGGTKLEIK
Kd [3]: 35.8 nM
Kd [4]: 35.8 nM

B6: 29A2 scFv (scFv, V domains shown)
VH: EVQLLETGGDLVKPGGSLKLSCAASGFTFSYYGMSWVRQTPDKRLEWVATISSGGSYTYYPDSVKGRFTISRDNAKNTLYLQMSSLKSEDTAMYYCARRRVYYGSSYEDYWGQGTTLTVSS
VL: EIVLTQSPALMSASPGEKVTMTCSASSSVSYMYWYQQKPRSSPKPWIYLTSNLASGVPARFSGSGSGTSYSLTISSMEAEDAATYYCQQWSSNPYTFGGGTKLELK
Kd [3]: 0.99 nM
Kd [4]: 0.99 nM

B7: 28H4 scFv (scFv, V domains shown)
VH: EVQLQQSGAELAKPGASVKLSCKASGYTFTSYWMHWVKQGPGQGLEWIGAIYPGNSDTGYNQKFKGKAKLTAVTSASTAYMELSSLTNEDSAVYYCTRHGYYIYALDYWGQGTSVTVSS
VL: DIVLTQSPAIMSASPGEKVTMTCSASSSVSYMYWYQQKPGSSPKPWIYRTSNLASGVPVRFSGSGSGTSYSLTISSMEAEDAATYYCQQYHNFPPTFGGGTKLEIK
Kd [3]: 20 nM
Kd [4]: 20 nM

B8: 30C8 scFv (scFv, V domains shown)
VH: EVQLKQSGTELVKPRSSVKMSCKASGYTFTDYWIGWTKQRPGHGLEWIGHIYPGGGYTNYNEKFKGKATLTADISSSAAYMQFSSPTSEDSAIYYCARIIMVESGDWYFDVWGTGTTLTVSS
VL: DIVLTQSPAIMSASLGEEITLTCSASSSVSYMHWYQQKSGTSPKLLIYSTSNLASGVPSRFSGSGSGTSYSLTISNMEAEDAATYYCQQWSSNPYTFGGGTKLELK
Kd [3]: 0.2 nM
Kd [4]: 0.2 nM

B9: 28C11 scFv (scFv, V domains shown)
VH: EVQLQESGGDLVKPGGSLKLSCAASGFTFSYYGMSWVRQTPDKRLEWVATISSGGTYTYYPDSVKGRFTISRDNAKNTLYLQMSSLSSEDTAMYYCARRRSYDSVYWYFDVWGAGTSVTVSS
VL: DIVLTQSPAITAASLGQKVTITCSASSSGSYIHWYQQKSGTSPKLLIYRTSNLASGVPSRFSGSGSGTFYSLTISSVEAEDAADYFCHQWSSYPTFGGGTKLEIK
Kd [3]: 0.12 nM
Kd [4]: 0.12 nM

B10: 26B2 scFv (scFv)
scFv: DVQLQESGPELVKPGASVKISCKASGYTFADYYINWVKQSHGKSLEWIGDFNPNNGDHSYNQKFKDKATLTVDESSNTAYMELRSLTSEDSAVYYCTREFYYYFDVWGTGTSVTVSSVDLKSGGSTSGSGKPGSGEGSSGSARDIEMTQTPAIMSASPGEKVTMTCSASSSVSSRYLHWYQQKSGASPKLWIYGTSNLASGVPARFSGSGSGTSYSLTISNVEAEDAATYYCQQYHSDPLTFGAGTKLEIK
notes: mouse
Kd (BoNT/B1): 0.276 nM
Kd [2]: 0.086 nM
